This experiment has as its target recombinant human SDF1 (free SDF1) (human, UniProt P48061-2 22-89). In words: SPR. For orientation: SPR reads the build-up and loss of mass on a sensor chip optically.

This is an account of results in article PMC4894760 (Journal of controlled release : official journal of the …, 2016).

recombinant human SDF1 (free SDF1), sequence (P48061 22-89): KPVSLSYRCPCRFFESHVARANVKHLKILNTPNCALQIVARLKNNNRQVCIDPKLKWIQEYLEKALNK

B1: recombinant human CXCR4 (receptor, UniProt P61073 1-352, looked up)
chain: MEGISIYTSDNYTEEMGSGDYDSMKEPCFREENANFNKIFLPTIYSIIFLTGIVGNGLVILVMGYQKKLRSMTDKYRLHLSVADLLFVITLPFWAVDAVANWYFGNFLCKAVHVIYTVNLYSSVLILAFISLDRYLAIVHATNSQRPRKLLAEKVVYVGVWIPALLLTIPDFIFANVSEADDRYICDRFYPNDLWVVVFQFQHIMVGLILPGIVILSCYCIIISKLSHSKGHQKRKALKTTVILILAFFACWLPYYIGISIDSFILLEIIKQGCEFENTVHKWISITEALAFFHCCLNPILYAFLGAKFKTSAQHALTSVSRGSSLKILSKGKRGGHSSVSTESESSSFHSS
By Kd is commonly meant the constant that tells how readily two partners part at equilibrium. Consider B1, for which the Kd is 0.3 nM.
